From patent US20250277037A1 (UNIVERSITY OF UTAH RESEARCH FOUNDATION, published 2025)

T1: mouse FcγRIV on RAW 264.7 macrophage cells (mouse, UniProt A0A0B4J1G0 21-249)
T1 construct: also called RAW 264.7 cells
T1 sequence: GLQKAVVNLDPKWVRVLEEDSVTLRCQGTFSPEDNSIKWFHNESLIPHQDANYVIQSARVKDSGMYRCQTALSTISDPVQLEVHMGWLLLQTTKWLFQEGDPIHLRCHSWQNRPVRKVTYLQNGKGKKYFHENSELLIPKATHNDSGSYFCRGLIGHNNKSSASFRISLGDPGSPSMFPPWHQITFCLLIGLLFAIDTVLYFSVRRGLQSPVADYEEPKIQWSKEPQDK

B1: D-αPD-1 (depleting anti-mouse PD-1 antibody; RMP1-14 variable domains on mouse IgG2a heavy and mouse κ light constant domains) (antibody)
heavy: EVQLQESGPGLVKPSQSLSLTCSVTGYSITSSYRWNWIRKFPGNRLEWMGYINSAGISNYNPSLKRRISITRDTSKNQFFLQVNSVTTEDAATYYCARSDNMGTTPFTYWGQGTLVTVSSAKTTAPSVYPLAPVCGDTTGSSVTLGCLVKGYFPEPVTLTWNSGSLSSGVHTFPAVLQSDLYTLSSSVTVTSSTWPSQSITCNVAHPASSTKVDKKIEPRGPTIKPCPPCKCPAPNLLGGPSVFIFPPKIKDVLMISLSPIVTCVVVDVSEDDPDVQISWFVNNVEVHTAQTQTHREDYNSTLRVVSALPIQHQDWMSGKEFKCKVNNKDLPAPIERTISKPKGSVRAPQVYVLPPPEEEMTKKQVTLTCMVTDFMPEDIYVEWTNNGKTELNYKNTEPVLDSDGSYFMYSKLRVEKKNWVERNSYSCSVVHEGLHNHHTTKSFSRTPGK
light: DIVMTQGTLPNPVPSGESVSITCRSSKSLLYSDGKTYLNWYLQRPGQSPQLLIYWMSTRASGVSDRFSGSGSGTDFTLKISGVEAEDVGIYYCQQGLEFPTFGGGTKLELKRADAAPTVSIFPPSSEQLTSGGASVVCFLNNFYPKDINVKWKIDGSERQNGVLNSWTDQDSKDSTYSMSSTLTLTKDEYERHNSYTCEATHKTSTSPIVKSFNRNEC
notes: also called anti-αPD-1 antibody; anti-PD-1 antibody 1

Assays:
[1] = target: mouse FcγRIV on RAW 264.7 macrophage cells (mouse); assay: competition, flow cytometry on RAW 264.7 cells; 25 and 250 µg/mL, not concentration-dependent; competitor PE anti-mouse FcγRIV (9E9)
[2] = target: mouse FcγRIV on RAW 264.7 macrophage cells (mouse); assay: competition by flow cytometry on RAW 264.7 cells: preincubation with the antibody at 4 °C for 30 min, then staining with PE anti-mouse FcγRIV (clone 9E9); inhibition relative to cells without antibody
[3] = target: mouse FcγRIV on RAW 264.7 macrophage cells (mouse); assay: flow cytometry, Alexa-647-labelled antibody at 4 µg/mL on RAW 264.7 cells, 4 °C 30 min (medium control 188.3)
[4] = target: mouse PD-1 (programmed death-1, CD279) on EL4 cells (mouse) (UniProt Q02242); assay: flow cytometry on PD-1+ EL4 cells, incubation on ice (4 °C) for 30 min, detection with PE anti-mouse IgG2a; medium control without antibody given as 70.0
mouse PD-1 (programmed death-1, CD279) on EL4 cells (mouse), sequence (Q02242 25-288): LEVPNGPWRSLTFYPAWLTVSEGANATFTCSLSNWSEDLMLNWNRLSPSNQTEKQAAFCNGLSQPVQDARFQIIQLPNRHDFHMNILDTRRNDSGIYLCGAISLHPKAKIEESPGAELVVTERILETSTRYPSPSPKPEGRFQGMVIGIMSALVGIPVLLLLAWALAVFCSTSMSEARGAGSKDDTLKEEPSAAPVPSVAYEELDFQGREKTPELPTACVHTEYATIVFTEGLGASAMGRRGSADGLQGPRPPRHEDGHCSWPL

[5] = target: T1, mouse FcγRIV on RAW 264.7 macrophage …; assay: flow cytometry, Alexa-647-labelled antibody at 4 µg/mL on RAW 264.7 cells, 4 °C 30 min; reference: cells in the medium control
Description: ADCP was the next mechanism that was investigated. Before evaluating D-αPD-1-mediated ADCP by macrophages, the binding between D-αPD-1 and macrophages was investigated since the binding is the prerequisite of ADCP. Here, RAW 264.7 cells were incubated with Alexa-647-labeled D-αPD-1, isotype control, or the medium control. Then, the bound antibodies were analyzed by flow cytometry (FIG. 5A).

Row | Molecule | percent inhibition of anti-mouse FcγRIV antibody binding [1] [%] | Inhibition (%) at 25 µg/mL [2] [%] | Inhibition (%) at 250 µg/mL [2] [%] | further results
1 | B-αPD-1 (anti-mouse PD-1 blocking antibody, clone RMP1-14, a rat IgG) | 10 | 10.5 | 6.7 | –
2 | goat IgG control (antibody) | 10 | 4 | 4.3 | –
3 | mouse IgG2a isotype control (antibody) | – | – | – | MFI [3]: 213 MFI; MFI at 0.1 µg/mL [4]: 95.4; MFI at 1 µg/mL [4]: 125; MFI at 10 µg/mL [4]: 433
4 | B1 | – | – | – | fold MFI over medium control [5]: ~3 fold
